Measured values reported in the nanobody polyreactivity screen of Harvey et al. (2022).

Test: yeast display, Sf9 membrane polyspecificity reagent, FACS + sequencing; frameworks hold sequencing errors
How it was run: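 Using colony PCR, genes from sorted yeast display clones were amplified, then sequenced on MiSeq at 2 × 250 and filtered by CDR length. The clones had been stained with 10% biotinylated, detergent-solubilized Sf9 membrane reagent for 1 hour at 4 °C and sorted by FACS into low and high (top ~1%) gates on anti-HA and streptavidin fluorescence. Polyreactivity labels come from the gate of origin.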

| Sequence | polyreactivity (PSR sort gate) |
| --- | --- |
| QVQLVESGGGLVQAGGSLRLSCAASGGTLAYYAMGWYRQAPGKERELVAAITRSGGSTYYSDSVKGRFTISRDNAKNTVYLQMNSLNPEVTAVYYCAALLAYWKNRWHIEYDYWGQGTQVTVSS | low polyreactivity |
| QVQLVESGGGLVQAGGSLRLSCDASGNTFSRYAMGWYRQAHGKERELVAAITSSGGSTYYADSVKGRFTISRDNAKNTVYLQMNSLKPEDTAVYYCAATSYYTREHYYYWGQGTQVTVSS | high polyreactivity |
| QVQLVESGGGLVQAGGSLRLSCAASGLIFPRYDIGWYRQAPGKESEFVAAITSGGGTYYADSVKGRFTLSRDNAKNTVYLQMNSVKPEDTAVYYCARDHYRHSRYFYRYDYWGQGTQVTVSS | low polyreactivity |
| QVHLVESGGGLVQAGGSLRLSSPASGRIFQDNAMGWYRQAPGKERELVAAISSSGGSTYYADSVKGRFTISRDNAKNTVYLHMNSLKPEDTAVYYCAADYYWYWDLYDYWGQGTQVSVSS | high polyreactivity |
| QVQLVESGGGLVQAGGSLRLSCAASGITFKYYAMGWYRQAPGKESELVAAISRSGSSTYYADSVKGRFTISRDNAKNTVYLQINSLTPEDTAVYYCAADWKSKRTDKYDSWGQGTQVTVSS | high polyreactivity |
| QVQLVESGGGLVQAGGSLRLSCAASGRTFRSYAMGWYRQAPGKERELVAAISSGTSTDYADSVKGRFTISRDNAKNTVYLQMNSLKPEDTAVYYCAYDYWGQGTQVTVSS | low polyreactivity |
| QVQIVESGGGSVQAGGSLRLSCADSGFTFRKNAMGWYRQAPGKERELVAAISVSGGRTYYADSVKVRFTISRDNAKNTFYLQMNSLKPEETAVYYCAARRYVLVHKYDYWGQGTQVTVSS | high polyreactivity |
| QVQLVESGGGLVQAGGSLRLSCAASGGIFKVYGMRWYRQAPGKERELVAAISWTTGGTYYADSVKGRFTISRDNAKITVYLQMNSLKQEDTAVYYCAAEYADSWSAFDWNYYYWGQGTQVTVSS | high polyreactivity |
| QVQLVESGGGLVQAGGSLRLSCAASGSIFGYYTMGWYRQAPGKERELVAAITYSGGSTYYADSVKGRFTISRDNAKNTVYLQMNSLKPEDTAVYYCNAKSAAHRYVRRHDYWGQGTQVTVSS | low polyreactivity |
| QVQLVESGGGLVQEGGSLRLSCAASGSTFYYYAMGWYRQAPGKERELVAAISSSGSTYYADSVKGRFTISRDNAKNTVYLQMISLNPEDTAVFYCNADSRTAGLNSEYDYWGQGTQVTVSS | low polyreactivity |
| QVQLVESGGGLVQAGGSLRLSCAASGFTIYNNAMGWYRQAPGKERELVAGITSGGDSTNYADSVKGRFTISRDNAKNTVYLQMNRLKPEDTAVYYCAAEGGTNTPGVVESDYWGQGTQVTVSS | low polyreactivity |
| QVQLVESGGGLVQAGGSLRLSCAASGRTFYGYAMGWYRQAPGKERELVAAITQRSGSTYYADSVKGRFTISRDNAKNTVYLQMNSLKPEDTAVYYYNADKSQRVRRGDYWGQGTQVTVSS | high polyreactivity |
| QVQLVESGGGLVQAGGSLRLSCAASGSTFVPYAMGWYRQAPGKEREFVAGITWSVGSTYYADSVKGRFTISRDNAKNTVYLQMNSLKPEDTAVYYCNAEIYAYFLWWYGYWGQGTQVTVSS | low polyreactivity |
| QVQLVESGGGLVQAGGSLRLSCAASGSIFVGYAMGWYRQAPGKERELVASITTRGGSTHYADSVKGRFTISRDNAKNTVYLQMNSLKPEDTAVYYCAADSLSNGVLQYLPGYDYWGQGTQVTVSS | low polyreactivity |
| QVQLVESGGGLVQAGGSLRLSCAAYGRIFSRNAMGWYRQAPGKERELVAAITSSGGSTYYADSVKGRFTISRDNAKNTVYLQMNSLKPEDTAVYYCNAVSRWWPAGFDYWGQGTQVTVSS | high polyreactivity |
| QVQLVESGGGLVQAGGSLRLSCAASGFNFDYNAMGWYRQAPGKERELVAAISWSGGRTYYADSVKGRFTISRDNAKNTVYLQMNSLKPEDTAVYYCAARARNYPPYNYWGQGTQVTVSS | high polyreactivity |
| QVQIVESGGGLVQAGGSLRLTCAASGLISTYYVMGWYRQAPGKERELVAAIRASDASTYYADSVKGRFTISRDNAKNTVYLQMNSLKPEDTAVYYCATDSYYVDDTEYDYWGQGTQVTVSS | low polyreactivity |
| QVQLVESGGGLVQAGGSLRLSCAASGRIFVGYAMGWYRQAPGKERELVAAINRSGSSTYYADSVKGRFTISRDNAKNTVYLQMNSLKPEDTAVYYCNAARRQGNRYTYDYWGQGTQVTVSS | high polyreactivity |
| QVQLVESGGGLVQAGGSLRLSCAASGRIFDPYAMGWYRQAPGKERELVATITRSGGSTYYADSVKGRFTISRDNAKNTVYLQMNSLKPEDTAVYYCAVGDGFEYDWGQGTQVTVSS | low polyreactivity |
| QVQLEESGGGLVQAGGSLRLSCAASGSIFARNAMGWYRQAPGNERELVAAISTGGGSTYYADSVKGRFTISRDNAKNSVYLQMKSLKPEDTAVYYCNAGDTQIRFYYWGQGTQVSVSS | low polyreactivity |
| QVQLVESGGGLVQAGGSLRLSCAASGSTFKYYGMGWYRQAPGKERELVAAITSGGSTYDADSVKGRFTISRDNAKTTVYLQRNSLKPEDTAVYYCNTQYYLYYPADYDYWGQGTQVTVSS | low polyreactivity |
| QVQLVESGGGLVQAGGSLRFSCAASGFTFRKNAMGWYRQAPGKERELVAAISRRGGRTYYADSVKGRFTISRDNAKNTVYLQMNSLKPEDTAVYYCNADEYGGSTGRKGRYNYWGQGTQVTVSS | low polyreactivity |

| Sequence | polyreactivity (PSR sort gate) |
| --- | --- |
| QVQLVESAGGLVQAGGSLRLSCAAYGIIFKIYAMGWYRQAPGKERELVAAITRSGTRTYYADSVKGRFTISRDNEKNTVYFQMNSLKPEDTAGYYCNAYTSLAYDLDYWGQGTQVTVSS | high polyreactivity |
| QVQLVESGGGLVQAGGSLRLSCAASGNIFFTNAMGWYRQAPGKDRELVATISFRGTSTYYADSVKGRFTISRDNAKNTVYLQMNSLKPEDTAVYYCTARYSVFHRARVNLLGWGLYYWGQGTQVTVSS | low polyreactivity |
| QVQLVESGGGLVQAGGSLRLSCAASGLTFWYYAMGWYRQAPGKERELVAAITSVGSTYYADSVKGRFTISRDNAKNTVYLQMNSLKPEDTAVYYCAAGVPPLYFRRGGDYWGQGTQGTVSS | high polyreactivity |
| QVQLVESGGGLVQAGGSLRLSCAASARIFSPYAMGWYRQAPGKERELVAAITSASSTYYADSVKGRFTISRDNAKNTLYLQMNSLKPEDTAVYYCAASYWRYGSAFDYWGQGTQVTVSS | high polyreactivity |
| QVQLVESGGGLVQAGGSLRLSCAASGRIFGPYTMGWYRQAPGKEREFVAAITRRGGSTYYADSVKGRFTISRDNAKNTVYLQMNSLKPEDTAVYYCAAVGQKRSLGYSWGQGTQVTVSS | low polyreactivity |
| QVQLVESWGGLVQAGGSLRLSCAASGSTFVVIAMGWYRLAPGKERELVAAISTSGGTTYYADSVKGRFTISRDNAKNTVYLQMNSLKPEDTAVYYCAAGGKKRDDYWGQGTQVTVSS | high polyreactivity |
| QVQLVESGGGLVQAGGSLRLSCAASGRTLFGNAMGWYRQAPGKERELVAAISRRGGSTSYADSVKGRFTISRDNAKNTVYLQMNSLKPEDTAVYYCAAAQGKYTGTHYPYDYWGQGTQVTVSS | high polyreactivity |
| QVQLVESGGGLVQAGGSLRLSCAASGFTFVRYAMGWYRQAPGKERELVAVISRSGGSTNYADSVKGRFTISRDNAKNTVYLQMNSLKAEDTAVYYCNVVVKGAWDYYPYDYWGQGTQVTVSS | high polyreactivity |
| QVQLVESGGGLVQAGGSLRLSCAASGSTFYSYGMGWYRPAPGKERELVAAITKRVGRTYYADSVKGRFTISRDNAKNTVYLQMNSLKPEDTAVYYCAARAWTRSVPYGFYYWGQGTQVTVSS | high polyreactivity |
| QVQLVESGGGLVQAGGSLRLSCAASGSTFYSYVIGWYRQAPGRESELVAVITSGGSTTYADSVNGRFTISRDNAKNTVYLEMNSLIPEDTAVYYCNAAYYNTDTQKVTFDYWGQGTQVTVSS | low polyreactivity |
| QVQLVESGGGLVQAGGSLRLSCAASGSTFWWNTMGWYRQAPWKERELVADIRTSGGGTYYADSVKGRFTISRDNAKNTVYLQMNSLKPEDTAVYYCNADPKWEMGSWGQGTQVTVSS | low polyreactivity |
| QVQLVESGGGLVQAGGSLRLICAASGSIYYSYGMGWYRQAPGKERELVAAITSSGGGTYYADSVKGRFTISRDNAKNTFYLQMNSLKPEDTAVYYCAADDRNYNYYPTFYYWGQGTQVTVSS | low polyreactivity |
| QVQLVESGGGLVQAGGSLRLSCASSGSTFTGNAMGWYRQAPGKERELVAAISYRGVSTSYADSVKGRFTISRDNAKNTVYLQMNSLKPEDTAVYYCAKRRSLVRSIPFDSWGQGTQVTVSS | low polyreactivity |
| QVKLVESGGGLVQAGGSLRLSCAASGIIFYSYAIGGYRPAPGTERELVAAISSTGSTYYADSVKGRFTISRDNAKNTVYLQMNSLKPEDTAVYYCAATFYPYQVHHYYYWGQGTQVTVSS | low polyreactivity |
| QVQLVESAGGLVQAGGSLRLSCAASGSICTKYAMGWYRQAPGKERELVAAISASGGSTYYADSVKGRFTISRDNAKNTVYLQMNSLKPEDTAVYYCAARYWVREDYWGQGTQVTVSS | high polyreactivity |
| QVQLVESCGGLVQAGGSLRLSCAPSGRTIVYKAMGWYRQAPGKERELVAAISWSGGSPYYADSVKGRFTISRDNAKNTVNLQMNSLKPDDSAVYYCATSSYYYTIWMYYWGQGTQVTVSS | high polyreactivity |
| QVQLVESGRGLVQAGGSLRLSCAASGRIFTKNTMGWYRQAPGKERELVAAIRSRAGSTYYADSVKGRFTISRDNAKNTVYLQMNSLKPEDTAVYYCAVPWFRSVDFDYWGQGTQVTVSS | low polyreactivity |
| QVQLVESGGGLVQAGGSLRLSSAASGFTFAYNDLGWSRQAPGKERELVATITNSGASTSYADSEKGRFTISRDNAKNTVYLQMNSLKPEDTAVYYCNVGLWRYVRFTGRYYPYDYWGQGTQVTVSS | high polyreactivity |
| QVQLVESGGGLVQAGGSLRLSCAASGSTFRVNAMGWYRQAPGKERELVAAISYRGGSTYYADSVKGRFTISRDNAKNTVYLQMNNLKPEDTAVYYCNADLKRRTYGPDSYYWGQGTQVTVSS | high polyreactivity |
| QVQLVESGGGLVQAGGSLRLICAASGFIFDPYAMGSYRQATGKVRELVAAISSGGSTYYADSVKGRFTISRDNAKNTVYLQMNSLKPEDNAVYYCAKVYVRYDSSTQTYLNTYGYWGQGTQVTVSS | high polyreactivity |
| QVQLVESGGGLVQAGGSLRLSCAASGRIFGVYAMGCYRQATGKERELVATNTSGGSTSYADSVKGRFTISRDNAKNPVYLQMNSLKPEDTAVYYCNAPYSFFWQQMNYWGQGTQETVSS | low polyreactivity |
